{"source": "paper PMC2834670", "biological_target": "T1, MleR (Streptococcus mutans UA159?) (UniProt Q8DWC9)", "T1 sequence": "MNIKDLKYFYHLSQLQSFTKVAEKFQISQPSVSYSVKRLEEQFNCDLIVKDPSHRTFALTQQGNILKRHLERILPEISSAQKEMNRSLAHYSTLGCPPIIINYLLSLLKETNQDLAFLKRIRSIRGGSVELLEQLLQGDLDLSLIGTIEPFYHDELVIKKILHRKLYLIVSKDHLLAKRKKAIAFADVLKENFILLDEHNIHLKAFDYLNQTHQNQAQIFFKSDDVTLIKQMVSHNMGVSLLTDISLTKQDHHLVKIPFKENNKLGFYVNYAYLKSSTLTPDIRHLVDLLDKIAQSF", "assay": "EMSA", "conditions": "20 mM Tris pH 7.5, 100 mM KCl, 2 mM EDTA, 10% glycerol, ~100 ng MleR, equal amount of competitor DNA (EP10/11 at 75 ng/ul), 20 min ambient temperature; 4.5% …"}
{"sequence": "GGTATCTTTGCGGCTATGGATATCACAGGTGAAAAATTGACTGATCAAGTCTATCTCTGTTACGGTGGCGGTACAGCAGGTGCGGGTATTGCCTCTCGTGTCTTGCGTGAAA (double strand) [internal mleS fragment (137qF/R)]", "values": [{"measurement": "binding", "result": "no binding"}]}
